Data as given in the nanobody polyreactivity screen of Harvey et al. (2022).

assay: yeast display, Sf9 membrane polyspecificity reagent, FACS + sequencing; frameworks hold sequencing errors
Procedure, shortened: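 Galactose-induced (36–48 hours) yeast carrying a synthetic nanobody display library were exposed to 10% biotinylated, detergent-solubilized Sf9 membrane reagent at 4 °C for 1 hour. FACS followed streptavidin microbead enrichment, using low and high (top ~1%) gates for expression (anti-HA) and reagent binding (streptavidin). Colony PCR, MiSeq 2 × 250 sequencing and CDR-length filtering followed. Labels for polyreactivity reflect the gate of origin.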

Sequence | polyreactivity (PSR sort gate)
QVQLVESGGGLVQAGGSLRLSCAASGFISTYYAMGWYRQAPGKERELVAAISWNGGSTYYADSVKGRFTISRDNAKNTVYLQMNSLKPEDTADYYCAAYLGKWRQFYSSDYDYWGQGTQVTVSS | low polyreactivity
QVQLVESGGGLVQAGGSLRLSCAASGSTFAKNAMGWYSQAPGIDRELVAAISSGGSTYYADSVKGRFTIARDNAKNTVYLQMNSLKPEDTAVYYCAASWIQGYRTYGYWGQGTQVTVSS | high polyreactivity
QVQLVESGGGLDQAGGSLRLSCAASGRTFGYYTMGWYRQAPWKERELVARINYIGSSTYYADSVKGRFTISRDNAKNTVYLQLNSLKREDTAVYYCNADTARGRSGVRRYYWGQGTQVTVSS | high polyreactivity
QVQLVESGGGLVQAGGSLRLSCAASGFNFSLNAMGWYRQAPGKERELVAAISRSGGRTYYADSVKGRFTISRDNAKNTVYLQMNSLKPEDTAVYYCAAVPITWYAYDYWGQGTQVTVSS | high polyreactivity
QVQLVESGGGLVQAGGSLRLRCAASGGNFDNYAMGWYRQAPGKERELVAAISRSGSSTFYADSVNGRFTISRDNAKNTVYLQMNSLKPEDTAVYYCSARYYYFAVYYGYIFEYDYWGQGTQLTVSS | low polyreactivity
QVQLVESGGGLVQAGGSLRLSCAASGFTFWKYTMGWYRQAPGKERELVAAITNSGTSTYYADSVKGRFTISRDNAKNTVYLQMNSLKPEDTAVYYCARDNEPDYYSYPYDYWGQGTQVTVSS | low polyreactivity
QVQLVESGGGLVQAGGSLRLSCAASGSTFVINAMGWYRPAPGKERELVARISSSGGRTDYADSVKGRFTISRDNAKNTVYLQMNSLKPEDTAVYYCAAATWLIPYTWRDPSQYNYWAQGTQVTVSS | low polyreactivity
QVQLVESGGGLVQAGGSLRLSCAASGRILGGNAMGWYRQAPGKERELVAAITSGGTTNYADSVKGRFTISRDNAKNTVYLQMNSLKPEDTAVYYCNADWTDGDWADMDYWGQGTQVTVSS | low polyreactivity
QVQLVESGGGLVQAGGSNRLSCAASGFTFYRNVMGWYRQAPGKERELVAARTWNGGTTYYADSEKGRFTISRDTAKSSVYLQMDSLQREDTAVYFCAAASRHTGSYRFYYWGQGTQVTVSS | high polyreactivity
QVQLVESGGGLVQAGGSLRLSCAASGSIFLVYAMGWYRQAPGKERELVAAISRSGRTYADSVKGRFTISRDNAKNTVYLQMNSLKPEDTAVYYCAAGTKRRFEGDYWGQGTQVTVSS | high polyreactivity
QVQLQESGGGLVQAGGSLRLSCAGSGYIFPRIYMGWYRQAPGKEREFDAGISYDAITNYADSVKGRFTISLDNAKNTVYLQMNSLKPEDTAVYYCAVSYYGTPLFTYWGQGTQVTVSS | high polyreactivity
QVQLVESGGGLVQAGGSLRLSSAASGRTFGKYAMGWYRQAPGKESELVAAITNSGGSTYYADSVKGRFTISRDNAKNTVYLQMISLKPEDTAVYYCNRLGYRGPSILNHMGYWGQGTQVTVSS | high polyreactivity
QVQLGESGGGLVHAGGSLRLSCAASGFIFGYYAMGWYRQAPGKERELVAAISQSTGSTYYADSVKGRFTISRDTAKNTVYLQMNSLKPEATAVYYCNAEGPEFTTWGYVYWAWGYGYWGQGTQVTVSS | low polyreactivity
QVQLVESGGGLVQAGGSLRLSCAASGRIFGFNAMGWYRQAPGKERELVAGITDSSGRTNYADSVKGRFTISRDNAKNTVYLEMNSLKPEDTAVLYCAKDGLVITAVGSDLWGHGTQVTVSS | low polyreactivity
QVQLVESGGGLVQAGGSLRLSCAASGFTFCKYTMGWYRQAPGKERELVAAITNSGTSTYYADSVKGRFTISRDNAKNTVYLQMNSLKPEDTAVYYCARDNEPDYYSYPYDYWGQGTQVTVSS | low polyreactivity
QVQLVESGGGLVQAGGSLRLSCAASGRIILVYAMGWYRQAPGKEREVVAAISSGGSTYYADSVKGRFTISRDTAKNPVYLQMNSLKPDDTAVYYSAARTAVGPIRSYWYDYWGQGTQVTVSS | low polyreactivity

Sequence | polyreactivity (PSR sort gate)
QVQLVESGGGLVQAGGSLRLSCAASGSTFWPYAMGWYRQATGKERELVAAISNGGGTKYADSVKGRFTISRDNAKNTVYLQMNSLKPEDTAVYYCAKTLWTGRAWYDYWGQGTQVTVSS | high polyreactivity
QVQLVESGGGLVQAGGSLRLSCAASGLIFRPYDMGWYRQAPGKERELVAAISNGDSTNYADSVKGRFTISRDNAKNTVYLQMNSLKPEDTAVYYCAAEDYYIYREPYDYWGQGTQVTVSS | low polyreactivity
QVQLVESGGGLVQAGGSLRLSCDASGRIFYRYVMGWYRQAPGKERELVAAIRNSGGSTYYADSVKGRFTISRDNAKNTVYLQMNSMKPEDTAVYYCAKRYGTSFYVGSAKIGYDYWGQGTQVTLSS | high polyreactivity
QVQLVESVGGFVQAGGSLRLSCAASGRIFGTYAMGWYRQAPGKERELVAAITRGGTTYYADSVKRRFTISRDNAKNTVYLQMNSLKPEDTAVYDCATGPAIRYDYWGQGTQVTVSS | low polyreactivity
QVQLVESGGGLVQAGGSLRLSCAASGSTFGWYAMGWYRQAPGKERDFVASITSSTGSTYYADSVKGRFTISRDNAKNTVYLQMYSLKPEDTAVYYCAASYVYTFLSYLLEYDYWGQGTQVTVSS | high polyreactivity
QVQLVESGGGLVQAGGSLRISCAASGITFEGYAMGWYRQAPGKESEFVAAITSTGTSTRYADSVKGRFTISRDNAKNTVYLQMNSLKPEDTAVYYCAAVARRLNTGKYYYWGQGTQVTVSS | high polyreactivity
QVQLVESGGGLVQAGGSLRLSCAASGRIFLTNTMGWYRQAPGKERELVAGISRGGRTYDADSVKGRFTISRDNAKNTVYLLKNSLKPEDTAVYYCAGRHRTPIYPYKRDYWGQGTQVSVSS | high polyreactivity
QVQLVESGGGLVQAGGSLRLSCAASGRIFSVYAMGWYRQAPGKERELVAAITNGGRTNYADSVKGRFTISRDNAKNTVYLQMNSLKPEDTAVYYCATDPVKSGYQRYYYWGQGTQVTVSS | low polyreactivity
QVQIVESGGGLVQAGGSLRLSCAASGFIFGQYAMGWYRQAPGKERELVAAISSVGTTNYADSVKGRFTISRDNAKNTVYLQMNSLKPEDTAVYYCNAPVFYYWDYSYFPYEVDYWGQGTQVTESS | low polyreactivity
QVQLVESGGGLVQAGGSLRLSSAASGGIFWYYTMGWYRQAPGKERELVAAISWSGGRTYYADSVKGRFTISRDNAKNTVYLQMNSLKPEDTAVYYCAANFRGVLGWYHYEYWGQGTQVTVSS | high polyreactivity
QVQLVESGGGLVQAGGSLRLSCAASGSIFDVNAMGWYRQAPGIERDLVAAISQRGTRTYYADSVKGRFTISRDNAKNTVYLQMNSLKPEDTAVYYCAARVPSVGNQSGYDYWGQGTQVTVSS | high polyreactivity
QVQLVESGGGLVEAGGSLRLRCAASGISYRYYAMGWYRQAPGKERELVAAITYRGGTTYYADSVKGRFKISRDKEKNTVYLQMNSLKPEDTAVYYCATDVNSYGYYYWGQGTQVTVSS | high polyreactivity
QVQLVESGGGLVQAGGSLRLSCAASGFIFLFNAMGWYRQAPGKERELVATNSSGGSTYYADSVKGRFTISLDNAKNTVYLQMTSLKPEDTAVYYCNAGPARTVYAQSSYVLYDYWGQGTQVTVSS | low polyreactivity
QVQLVESGGGLVQAGGSLRLSCAASGSTFYKYAMGWYRQAPGKERELVARISRGGGSTYYADSVKGRFTISRDNAKNTVYLQMNSLKPEDTAVYYCAAGVRGQNDGYYWGQGTEVTVSS | high polyreactivity
QVQLQESGGGLVQAGGSLRLSCAASGTIFDKDDMGWYRQAPGKEREFVAGIDRGGTTNCAGSVKGRFTISRDNAKNTVYLQMISLKPEDTEVYYCAAYYPDIYPFIYRGQGTQVTVSS | high polyreactivity
